Data published in US6375944B1, “Methods and compositions for enhancing the immunostimulatory effect of interleukin-12” (The Wistar Institute of Anatomy and Biology, priority 1998, dated 2002).

System: splenocytes
Test: Mitogen and alloantigen stimulation of splenocytes (3H-thymidine incorporation), whole or adherent/nonadherent cocultures
Format: cell-based, mice
Details: for proliferative responses to Con A, IL-12 and allogeneic stimulation: data not shown
Method: The mitogen and alloantigen stimulation of splenocytes assay was performed as follows: In vitro mitogenic stimulation of splenocytes with […] Con A or 100 U/ml rmIL-12 was performed as described [Kurzawa, cited above]. Proliferative responses to allogeneic antigens (mixed lymphocyte reaction, MLR) was measured when splenocytes from the mice were stimulated with 10^5 mitomycin treated A/J splenocytes. Splenocyte fractionation was performed by allowing 10^5 splenocytes to adhere for 90 minutes in 96 well plates, after which the nonadherent cells were removed and cocultured with adherent cells from different wells for assay. When added, antibodies (XMG6 for IFNγ, XT22 for TNFα, AE5 for IL-10 and C17.8 for IL-12 ) were used at […] final concentration. After 72 hours exposure to mitogen, cultures were pulsed with 1 μCi^3H-thymidine for 16 hours, cells were harvested and ^3H incorporation was measured by scintillation counting. Supernatants from cultures assayed for IFNγ by radioimmunoassay (RIA) (using antibodies AN18 and XMG6 [Wysocka, M. et al. 1995 Eur. J. Immunol. 25:672] were harvested 24 or 72 hours after stimulation.
A. Splenocytes from rmIL-12- and PBS-treated C57BL/6 mice were fractioned by adherence to 96 well plastic plates for 90 minutes. The cells were reconstituted in various combinations of adherent and nonadherent cells by overlaying nonadherent cells on the adherent cells. These cocultures were then stimulated with either 2.5 μg/ml Con A, 100 U/ml IL-12, or 10^5 mitomycin C treated A/J (H-2A) splenocytes, as described in the mitogen/alloantigen assay of Example 1.
B. Cocultures were established from splenic adherent and nonadherent cells of PBS-treated mice or from the adherent cells of rmIL-12-treated mice and nonadherent cells of PBS-treated mice. Antibodies XMG6 (to IFNγ), XT22 (to TNFα), AE5 (to IL-10) and C17.8 (to IL-12 ) were added to a final concentration of […] in cocultures containing adherent cells from spleen of rmIL-12-treated mice, also according to the assay described in Example 1.
Cocultures were established from splenic adherent and nonadherent cells of PBS-treated mice or from the adherent cells of rmIL-12-treated mice and nonadherent cells of PBS-treated mice. Antibodies XMG6 (to IFNγ), XT22 (to TNFα), AE5 (to IL-10) and C17.8 (to IL-12) were added to a final concentration of […] in cocultures containing adherent cells from spleen of rmIL-12-treated mice. An inhibitor of inducible nitric oxide synthase (iNOS), L-NMMA (Sigma), was added to cocultures of adherent cells from rmIL-12 treated mice and nonadherent cells from control mice at a final concentration of […]. Alternatively, D-NMMA (Sigma), a noninhibitory isoform of L-NMMA, was added to other cocultures as a control.

B1: rmIL-12: recombinant murine Interleukin-12, heterodimeric cytokine, from Genetics Institute (protein, UniProt P43431 23-215; P43432 23-335, looked up)
Interleukin-12 subunit alpha: RVIPVSGPARCLSQSRNLLKTTDDMVKTAREKLKHYSCTAEDIDHEDITRDQTSTLKTCLPLELHKNESCLATRETSSTTRGSCLPPQKTSLMMTLCLGSIYEDLKMYQTEFQAINAALQNHNHQQIILDKGMLVAIDELMQSLNHNGETLRQKPPVGEADPYRVKMKLCILLHAFSTRVVTINRVMGYLSSA
Interleukin-12 subunit beta: MWELEKDVYVVEVDWTPDAPGETVNLTCDTPEEDDITWTSDQRHGVIGSGKTLTITVKEFLDAGQYTCHKGGETLSHSHLLLHKKENGIWSTEILKNFKNKTFLKCEAPNYSGRFTCSWLVQRNMDLKFNIKSSSSSPDSRAVTCGMASLSAEKVTLDQRDYEKYSVSCQEDVTCPTAEETLPIELALEARQQNKYENYSTSFFIRDIIKPDPPKNLQMKPLKNSQVEVSWEYPDSWSTPHSYFSLKFFVRIQRKKEKMKETEEGCNQKGAFLVEKTSTEVQCKGGNVCVQAQDRYYNSSCSKWACVPCRVRS
In the case of B1, the mitogenic responses (cultures of adherent and nonadherent splenocytes both from rmIL-12 treated mice, vs. PBS-treated) is reported as “suppressed mitogenic responses”, the “proliferative responses (Con A, IL-12 or alloantigen)” value (nonadherent cells from control mice mixed with adherent cells from rmIL-12 treated mice) is reported as “severely impaired” and the mitogenic responses (nonadherent cells from rmIL-12 treated mice cocultured with adherent cells from PBS-treated mice) is reported as “normal mitogenic responses”. For the same molecule, the “in vitro mitogenic and alloproliferative responses” value (splenocytes from rmIL-12-treated HKB-vaccinated C57BL/6 mice) was “suppressed”, the “proliferative responses to Con A, IL-12 and allogeneic stimulation” value (splenocytes from rmIL-12-treated TNFR−/− mice) was “suppressed” and the “proliferative responses after stimulation with mitogens or alloantigens” value (splenocytes from rmIL-12-treated iNOS−/− mice) was “proliferative responses like those of splenocytes from control mice”. The “proliferative responses to Con A, IL-12 and allogeneic stimulation” value (splenocytes from rmIL-12 treated IFNγ−/− mice) was “normal proliferative responses”.
